Source: publication PMC2724274 (Nucleic Acids Research, 2009)

Molecular target: the molecule itself
Test: crystal structure

B1: CrgA (contact-regulated gene A), full-length, from Neisseria meningitidis (natural protein, UniProt Q9JXW7 1-299, looked up)
chain: MKTNSEELTVFVQVVESGSFSRAAEQLAMANSAVSRIVKRLEEKLGVNLLNRTTRQLSLTEEGAQYFRRAQRILQEMAAAETEMLAVHEIPQGVLSVDSAMPMVLHLLAPLAAKFNERYPHIRLSLVSSEGYINLIERKVDIALRAGELDDSGLRARHLFDSRFRVIASPEYLAKHGTPQSTEELAGHQCLGFTEPGSLNTWAVLDAQGNPYKISPHFTASSGEILRSLCLSGCGIVCLSDFLVDNDIAEGKLIPLLAEQTSDKTHPFNAVYYSDKAVNLRLRVFLDFLVEELGNNLCG
- stoichiometry N: 8
